# According to PMC3293039, “Highly stable meso-diaminopimelate dehydrogenase from an Ureibacillus thermosphaericus strain A1 isolated from a Japanese compost: purification, characterization and sequencing” (AMB Express, 2011):
# B1: meso-DAPDH (meso-diaminopimelate dehydrogenase) (Ureibacillus thermosphaericus) (protein)
# chain: SKIRIGIVGYGNLGRGVEAAIQQNPDMELVAVFTRRDPKTVAVKSNVKVLHVDDAQSYKDEIDVMILCGGSATDLPEQGPYFAQYFNTIDSFDTHARIPDYFDAVNAAAEQSGKVAIISVGWDPGLFSLNRLLGEVVLPVGNTYTFWGKGVSQGHSDAIRRIQGVKNAVQYTIPIDEAVNRVRSGENPELSTREKHARECFVVLEEGADPAKVEHEIKTMPNYFDEYDTTVHFISEEELKQNHSGMPHGGFVIRSGKSDEGHKQIIEFSLNLESNPMFTSSALVAYARAAYRLSQNGDKGAKTVFDIPFGLLSPKSPEDLRKELL
# notes: native, purified from U. thermosphaericus A1 cells; gene encodes 326 residues; homodimer about 80 kDa, subunit about 40 kDa; N-terminus SKIRIGIVGY (initiator Met removed)
# Experiments:
# [1] = substrate: NC(=O)c1ccc[n+]([C@@H]2O[C@H](COP(=O)(O)OP(=O)(O)OC[C@H]3O[C@@H](n4cnc5c(N)ncnc54)[C@H](OP(=O)(O)O)[C@@H]3O)[C@@H](O)[C@H]2O)c1; assay: purified protein; assay type: biochemical, Ureibacillus thermosphaericus; conditions: oxidative deamination, meso-DAP as co-substrate, carbonate-KOH pH 10.5, 50 °C, varied: cofactor
# [2] = substrate: N[C@H](CCC[C@H](N)C(=O)O)C(=O)O; assay: purified protein; assay type: biochemical, Ureibacillus thermosphaericus; conditions: oxidative deamination, NADP as co-substrate, carbonate-KOH pH 10.5, 50 °C
protein,measurement,setting,value
B1,Km,[1],130 µM
same,Km,[2],1600 µM
